Test results as given in US20120156201A1 (PROTAB, published 2012).
Where a chain is given by its changes, count along the chain named.

T1: peptide-6 (HSP65-derived peptide, GPKGRNVVLEKKWGAP) (Mycobacterium tuberculosis)
T1 construct: also called peptide-6 antigen; 15
T1 peptide: GPKGRNVVLEKKWGAP

B1: chimeric mouse-human anti-peptide-6 IgG1 antibody (antibody, V domains shown)
VH: QVTLKESGPGILQPSQTLSLTCSFSGFSLSTSNMGVGWIRQPSGKGLEWLLHILWNDSKYYNPALKSRLTISKDTYNNQVFLKIANVDTADTATYYCARMGGYYGNYGYYAMDYWGQGTSVTVSS
VL: QIVLTQSPAIMSASLGERVTMTCTASSSVSSSYLHWYQQKPGSSPKLWIYSTSNLASGVPARFSGSGSGTSYSLTISSMEAEDAATYYCHQYHRSPPTFGSGTKLEIK
notes: also called chimeric mouse IgG1; chimeric mouse antibody
B2: humanized anti-peptide-6 antibody variant VH2/VK2 (antibody, V domains shown)
VH: QVTLKESGPALVKPTQTLTLTCSFSGFSLSTSNMGVGWIRQPAGKGLEWLLHILWNDSKYYNPALKSRLTISKDTYKNQVVLTMTNMDPVDTATYYCARMGGYYGNYGYYAMDYWGQGTLVTVSS
VL: QIVLTQSPATLSLSPGERATMSCTASSSVSSSYLHWYQQKPGKAPKLWIYSTSNLASGVPSRFSGSGSGTDYTLTISSLQPEDFATYYCHQYHRSPPTFGQGTKLEIK
B3: humanized anti-peptide-6 antibody variant VH1/VK1 (antibody, V domains shown)
VH: B2 VH with L11I, A43S, L120S
VL: B2 VL with T10I, P81A
B4: humanized anti-peptide-6 antibody variant VH1/VK2 (antibody, V domains shown)
VH: B2 VH with L11I, A43S, L120S
VL: B2 VL
B5: humanized anti-peptide-6 antibody variant VH1/VK3 (antibody, V domains shown)
VH: B2 VH with L11I, A43S, L120S
VL: B2 VL with M21L
B6: humanized anti-peptide-6 antibody variant VH2/VK1 (antibody, V domains shown)
VH: B2 VH
VL: B2 VL with T10I, P81A
B7: humanized anti-peptide-6 antibody variant VH2/VK3 (antibody, V domains shown)
VH: B2 VH
VL: B2 VL with M21L
notes: also called humanized VH2/VK3; PRO01 VH2/VK3
B8: humanized anti-peptide-6 antibody variant VH3/VK1 (antibody, V domains shown)
VH: B2 VH with Y76S
VL: B2 VL with T10I, P81A
B9: humanized anti-peptide-6 antibody variant VH3/VK2 (antibody, V domains shown)
VH: B2 VH with Y76S
VL: B2 VL
B10: humanized anti-peptide-6 antibody variant VH3/VK3 (antibody, V domains shown)
VH: B2 VH with Y76S
VL: B2 VL with M21L
B11: humanized anti-peptide-6 antibody variant VH4/VK1 (antibody, V domains shown)
VH: B2 VH with L51A, Y76S
VL: B2 VL with T10I, P81A
B12: humanized anti-peptide-6 antibody variant VH4/VK2 (antibody, V domains shown)
VH: B2 VH with L51A, Y76S
VL: B2 VL
B13: humanized anti-peptide-6 antibody variant VH4/VK3 (antibody, V domains shown)
VH: B2 VH with L51A, Y76S
VL: B2 VL with M21L
B14: mouse anti-peptide-6 monoclonal antibody (IgM) (antibody, V domains shown)
VH: B1 VH
VL: B1 VL
notes: also called mouse-IgM

How the values were obtained:
[1] = molecular target: T1, peptide-6 (HSP65-derived peptide, …); assay: ELISA, plates precoated with 10 µg/ml peptide-6, goat anti-human IgG peroxidase
[2] = molecular target: T1, peptide-6 (HSP65-derived peptide, …); assay: ELISA, peptide-6 coated at 10 µg/ml
[3] = molecular target: T1, peptide-6 (HSP65-derived peptide, …); assay: ELISA, peptide-6 coated plate
[4] = molecular target: T2, human adenylyl cyclase-associated protein 1 (CAP1) fused to His tag at the N-terminus (human, UniProt Q01518 1-475); assay: Western blot of over-expressed and purified His-CAP1
T2 construct: also called His-CAP1; His-tagged CAP1; not shown: 6xHIS tag at the N terminus from a modified Pet22b vector
T2 sequence (Q01518 whole entry, the tested form may be a part): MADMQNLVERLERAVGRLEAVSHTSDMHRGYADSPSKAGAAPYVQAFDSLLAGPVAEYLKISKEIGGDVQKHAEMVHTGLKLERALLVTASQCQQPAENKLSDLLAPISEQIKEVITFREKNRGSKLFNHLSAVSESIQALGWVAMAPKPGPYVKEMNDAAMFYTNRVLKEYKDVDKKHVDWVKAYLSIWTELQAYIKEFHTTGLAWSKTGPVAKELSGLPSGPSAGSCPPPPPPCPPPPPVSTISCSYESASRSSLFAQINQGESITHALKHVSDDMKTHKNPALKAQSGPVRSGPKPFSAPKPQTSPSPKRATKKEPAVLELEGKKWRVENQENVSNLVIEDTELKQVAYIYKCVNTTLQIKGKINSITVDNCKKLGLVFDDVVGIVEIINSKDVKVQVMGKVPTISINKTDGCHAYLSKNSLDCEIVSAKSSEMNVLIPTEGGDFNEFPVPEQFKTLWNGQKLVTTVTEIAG

[5] = molecular target: T1, peptide-6 (HSP65-derived peptide, …); assay: ELISA, peptide-6 coated at 10 µg/ml, anti-human IgG kappa peroxidase
[6] = molecular target: T1, peptide-6 (HSP65-derived peptide, …); assay: ELISA, plates precoated with 10 µg/ml peptide-6, goat anti-mouse IgM peroxidase

Binder | binding result [3] | binding result [5] | further results
B1 | – | – | binding result [1]: binds
B2 | – | – | binding result [2]: binds
B3 | binds | – | –
B4 | binds | – | –
B5 | binds | – | –
B6 | binds | – | –
B7 | – | – | binding result [4]: binds; binding result [2]: binds
B8 | binds | – | –
B9 | – | binds | –
B10 | – | binds | –
B11 | – | binds | –
B12 | – | binds | –
B13 | – | binds | –
B14 | – | – | binding result [6]: binds
